Columns and labels:
Gal4AD-Caf1a = Gal4AD-Caf1a (UniProt Q9UIV1); test: yeast two-hybrid (β-galactosidase reporter); settings: yeast strain YRG-2, LacZ reporter under five GAL4 consensus sequences; triplicate; parent: est. 8.4; read off a plot
Gal4AD-Caf1b = Gal4AD-Caf1b (UniProt Q9UFF9); test: yeast two-hybrid (β-galactosidase reporter); settings: yeast strain YRG-2, LacZ reporter under five GAL4 consensus sequences; triplicate; parent: est. 25; read off a plot
Sequence of UniProt Q9UFF9 (Q9UFF9 whole entry, the tested form may be a part): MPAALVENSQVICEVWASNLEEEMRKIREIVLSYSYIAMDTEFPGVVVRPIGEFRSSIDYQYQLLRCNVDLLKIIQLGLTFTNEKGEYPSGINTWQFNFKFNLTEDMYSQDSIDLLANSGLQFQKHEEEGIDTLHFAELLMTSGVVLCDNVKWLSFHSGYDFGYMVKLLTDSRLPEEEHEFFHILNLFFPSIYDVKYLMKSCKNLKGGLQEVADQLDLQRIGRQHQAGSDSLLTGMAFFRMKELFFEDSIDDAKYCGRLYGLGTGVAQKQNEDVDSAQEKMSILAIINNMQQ

Sequence of UniProt Q9UIV1 (Q9UIV1 whole entry, the tested form may be a part): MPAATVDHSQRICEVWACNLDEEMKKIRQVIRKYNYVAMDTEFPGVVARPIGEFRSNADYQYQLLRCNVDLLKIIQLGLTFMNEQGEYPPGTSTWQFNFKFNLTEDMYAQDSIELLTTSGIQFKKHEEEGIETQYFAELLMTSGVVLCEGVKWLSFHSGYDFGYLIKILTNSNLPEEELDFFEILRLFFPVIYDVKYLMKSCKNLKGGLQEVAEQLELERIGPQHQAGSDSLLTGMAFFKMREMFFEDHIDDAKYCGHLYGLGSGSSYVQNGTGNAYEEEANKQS

response (Gal4AD-Caf1a): 1.7 x10^4 RLU | response (Gal4AD-Caf1b): 2.8 x10^4 RLU
Substance: Gal4-DNA binding domain-TOB1 (from UniProt P50616) H45A

Reference: publication PMC3517456
